Results taken from article PMC1368978, “Crystal structure of a DNA polymerase sliding clamp from a Gram-positive bacterium” (BMC Structural Biology, 2006).

Molecular target: the molecule itself
Test: crystal structure; hanging drop, 20 mg/mL protein in Buffer A + 100 mM NaCl; 30% PEG 2000 MME, 100 mM sodium acetate pH 4.5, 200 mM ammonium sulfate, 20°C; space group P2(1), one dimer in the asymmetric unit; refined to 2.1 Å

B1: β subunit of the DNA polymerase III holoenzyme of Streptococcus pyogenes (natural protein)
chain: MIQFSINRTLFIHALNTTKRAISTKNAIPILSSIKIEVTSTGVTLTGSNGQISIENTIPVSNENAGLLITSPGAILLEASFFINIISSLPDISINVKEIEQHQVVLTSGKSEITLKGKDVDQYPRLQEVSTENPLILKTKLLKSIIAETAFAASLQESRPILTGVHIVLSNHKDFKAVATDSHRMSQRLITLDNTSADLMVVLPSKSLREFSAVFTDDIETVEVFFSPSQILFRSEHISFYTRLLEGNYPDTDRLLMTEFETEVVFNTQSLRHAMERAFLISNATQNGTVKLEITQNHISAHVNSPEVGKVNEDLDIVSQSGSDLTISFNPTYLIESLKAIKSETVKIHFLSPVRPFTLTPGDEEESFIQLITPVRTN
notes: β subunit (sliding clamp) of DNA polymerase III, Streptococcus pyogenes; residues up to Thr 377 are named in the model; A selenomethionine-derivatized form was also made and crystallized for phasing (MAD); also called S. pyogenes β subunit; S. pyogenes β clamp; source: E. coli BLR DE3 (plasmid pETSpdnaN), purified (ammonium sulfate cut, Fast Flow Q, EAH-Sepharose 4B, Mono Q)
- stoichiometry N: 2
